The source of these data is patent US20240239863A1, “GIP RECEPTOR AGONIST AND USE THEREOF” (HANGZHOU ZHONGMEIHUADONG PHARMACEUTICAL CO., LTD., priority 2022, published 2024).

What all share (experiment): cell-based or functional assay
Assay [1] has as its target T1, human GIP receptor (glucose-dependent insulinotropic peptide receptor, GIPR) (human, UniProt P48546 22-466).
T1 sequence (looked up): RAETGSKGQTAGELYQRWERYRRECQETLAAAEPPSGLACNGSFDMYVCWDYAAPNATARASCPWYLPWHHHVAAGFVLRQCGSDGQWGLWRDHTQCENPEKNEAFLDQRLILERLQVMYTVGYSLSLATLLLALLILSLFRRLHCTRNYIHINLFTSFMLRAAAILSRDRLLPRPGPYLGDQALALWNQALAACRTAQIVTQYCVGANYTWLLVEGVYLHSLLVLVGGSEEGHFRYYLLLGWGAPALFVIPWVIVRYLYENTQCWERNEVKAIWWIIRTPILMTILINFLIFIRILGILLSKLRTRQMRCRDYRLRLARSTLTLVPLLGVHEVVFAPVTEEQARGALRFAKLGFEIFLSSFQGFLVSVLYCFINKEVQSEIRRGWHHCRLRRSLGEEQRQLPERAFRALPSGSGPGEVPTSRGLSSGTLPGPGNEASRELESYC

The target of assay [2] is T2, human GLP-1 receptor (human, UniProt P43220 24-463).
Assay [3] deals with T1, human GIP receptor (glucose-dependent …). The source holds these as a separate data set.
The target of assay [4] is T2, human GLP-1 receptor. The source holds these as a separate data set.

Where two headings read alike, the source gives them in different places. Non-standard residues stand in square brackets, D forms with d. No end group written: not given here. Aib = CC(C)(N)C(=O)O

Y[Aib]EGTFISDYSIALDK(18‑(((23R)-23-carboxyl-2,11,20-trioxo-10,19-diaza-4,7,13,16-tetraoxatricosyl-23-yl)amino)‑18‑oxooctadecanoic acid acetyl)IHQEDFVNWLLAQRG: the “EC50(pM), cell agonistic activity (cAMP, HTRF)” value (shortened to “EC50(pM) … (cAMP, HTRF)”) in assay [1] turned out to be 7.24 pM. The “EC50(pM), cell agonistic activity” value with human GLP-1 receptor [2] is above 100 pM.

Turning to Y[Aib]EGTFISDYSIALDRLHQEDFVKWLLAQRG [Sequence 15 (Seq ID. 15)], in assay [3], the “EC50(pM) … (cAMP, HTRF)” value amounted to 27.2 pM. Besides, in the assay with human GLP-1 receptor [4], the “EC50(pM), cell agonistic activity” value was above 100 pM.

Take Y[Aib]EGTFISDYSIALDK(18‑(((23R)-23-carboxyl-2,11,20-trioxo-10,19-diaza-4,7,13,16-tetraoxatricosyl-23-yl)amino)‑18‑oxooctadecanoic acid acetyl)LHQEDFVNWLLAQRG: in assay [1], the “EC50(pM) … (cAMP, HTRF)” value stood at 6.82 pM. Further, in the assay with human GLP-1 receptor [2], the “EC50(pM), cell agonistic activity” value is above 100 pM.

Consider Y[Aib]EGTFISDYSIALDK(18‑(((23R)-23-carboxyl-2,11,20-trioxo-10,19-diaza-4,7,13,16-tetraoxatricosyl-23-yl)amino)‑18‑oxooctadecanoic acid acetyl)LHQQDFVNWLLAQRG, for which the “EC50(pM) … (cAMP, HTRF)” value in assay [1] was found to be 4.26 pM. Also, the “EC50(pM), cell agonistic activity” value with human GLP-1 receptor [2] was above 100 pM.

Turning to Y[Aib]EGTFISDYSIALDRIHQEDFVKWLLAQRG (also: long-acting conjugating component, site and structure not given here) [Peptide 11 (long-acting conjugate of GIP analog, Seq ID. 11)], in assay [1], the “EC50(pM) … (cAMP, HTRF)” value was determined as 3.5 pM. Moreover, the “EC50(pM), cell agonistic activity” value with human GLP-1 receptor [2] is above 100 pM.

As to Y[Aib]EGTFISDYSIALDRIHQQDFVKWLLAQRG [Sequence 13 (Seq ID. 13)], the “EC50(pM) … (cAMP, HTRF)” value in assay [3] is 36.2 pM. For the same molecule, the “EC50(pM), cell agonistic activity” value with human GLP-1 receptor [4] is above 100 pM.

As for Y[Aib]EGTFISDYSIALDRIHQEDFVNWLLAQKG (also: long-acting conjugating component, site and structure not given here) [Peptide 12 (long-acting conjugate of GIP analog, Seq ID. 12)], the “EC50(pM) … (cAMP, HTRF)” value in assay [1] stood at 5.14 pM. Further, the “EC50(pM), cell agonistic activity” value with human GLP-1 receptor [2] was above 100 pM.

For the molecule Y[Aib]EGTFISDYSIALDRIHQQDFVKWLLAQRG (also: long-acting conjugating component, site and structure not given here) [Peptide 13 (long-acting conjugate of GIP analog, Seq ID. 13)], the “EC50(pM) … (cAMP, HTRF)” value in assay [1] was found to be 5.61 pM. For the same molecule, the “EC50(pM), cell agonistic activity” value in the assay with human GLP-1 receptor [2] was above 100 pM.

For Y[Aib]EGTFISDYSIALDELHQKDFVNWLLAQRG (also: long-acting conjugating component, site and structure not given here) [Peptide 6 (long-acting conjugate of GIP analog, Seq ID. 6)], the “EC50(pM) … (cAMP, HTRF)” value in assay [1] worked out at 32.2 pM. In the assay with human GLP-1 receptor [2], the “EC50(pM), cell agonistic activity” value was above 100 pM.

For the molecule Y[Aib]EGTFISDYSIALDRLHQQDFVNWLLAQKG (also: long-acting conjugating component, site and structure not given here) [Peptide 18 (long-acting conjugate of GIP analog, Seq ID. 18)], in assay [1], the “EC50(pM) … (cAMP, HTRF)” value turned out to be 21.1 pM. Moreover, the “EC50(pM), cell agonistic activity” value with human GLP-1 receptor [2] is above 100 pM.

For Y[Aib]EGTFISDYSIALDRLHQQDFVKWLLAQRG [Sequence 17 (Seq ID. 17)], the “EC50(pM) … (cAMP, HTRF)” value in assay [3] turned out to be 58.2 pM. For the same molecule, the “EC50(pM), cell agonistic activity” value with human GLP-1 receptor [4] is above 100 pM.

In the case of Y[Aib]EGTFISDYSI[Aib]LDEIHQKDFVKWLLAQKG [Sequence 2 (Seq ID. 2)], the “EC50(pM) … (cAMP, HTRF)” value in assay [3] was determined as 10.7 pM. For the same molecule, in the assay with human GLP-1 receptor [4], the “EC50(pM), cell agonistic activity” value is above 100 pM.

With Y[Aib]EGTFISDYSIALDEIHQKDFVNWLLAQRG (also: long-acting conjugating component, site and structure not given here) [Peptide 5 (long-acting conjugate of GIP analog, Seq ID. 5)], the “EC50(pM) … (cAMP, HTRF)” value in assay [1] was determined as 27 pM. Also, the “EC50(pM), cell agonistic activity” value with human GLP-1 receptor [2] is above 100 pM.

Turning to Y[Aib]EGTFISDYSIALDRIHQQDFVNWLLAQKG [Sequence 14 (Seq ID. 14)], in assay [3], the “EC50(pM) … (cAMP, HTRF)” value was found to be 18.4 pM. The “EC50(pM), cell agonistic activity” value with human GLP-1 receptor [4] was above 100 pM.

For Y[Aib]EGTFISDYSIALDRLHQQDFVNWLLAQKG [Sequence 18 (Seq ID. 18)], in assay [3], the “EC50(pM) … (cAMP, HTRF)” value was found to be 16.9 pM. In addition, in the assay with human GLP-1 receptor [4], the “EC50(pM), cell agonistic activity” value is above 100 pM.

For the molecule Y[Aib]EGTFISDYSIALDK(18‑(((23R)-23-carboxyl-2,11,20-trioxo-10,19-diaza-4,7,13,16-tetraoxatricosyl-23-yl)amino)‑18‑oxooctadecanoic acid acetyl)IHQQDFVNWLLAQRG, the “EC50(pM) … (cAMP, HTRF)” value in assay [1] was 6.66 pM. Also, the “EC50(pM), cell agonistic activity” value with human GLP-1 receptor [2] was above 100 pM.

In the case of Y[Aib]EGTFISDYSIALDRIHQQDFVNWLLAQK(18‑(((23R)-23-carboxyl-2,11,20-trioxo-10,19-diaza-4,7,13,16-tetraoxatricosyl-23-yl)amino)‑18‑oxooctadecanoic acid acetyl)G, the “EC50(pM) … (cAMP, HTRF)” value in assay [1] was 3.5 pM. Besides, in the assay with human GLP-1 receptor [2], the “EC50(pM), cell agonistic activity” value was above 100 pM.

In the case of Y[Aib]EGTFISDYSIALDRLHQQDFVKWLLAQRG (also: long-acting conjugating component, site and structure not given here) [Peptide 17 (long-acting conjugate of GIP analog, Seq ID. 17)], the “EC50(pM) … (cAMP, HTRF)” value in assay [1] came to 25.7 pM. Also, the “EC50(pM), cell agonistic activity” value in the assay with human GLP-1 receptor [2] is above 100 pM.

Regarding Y[Aib]EGTFISDYSIALDRLHQEDFVKWLLAQRG (also: long-acting conjugating component, site and structure not given here) [Peptide 15 (long-acting conjugate of GIP analog, Seq ID. 15)], the “EC50(pM) … (cAMP, HTRF)” value in assay [1] was 9.14 pM. In addition, the “EC50(pM), cell agonistic activity” value with human GLP-1 receptor [2] was above 100 pM.

Regarding Y[Aib]EGTFISDYSIALDRLHQEDFVNWLLAQKG (also: long-acting conjugating component, site and structure not given here) [Peptide 16 (long-acting conjugate of GIP analog, Seq ID. 16)], the “EC50(pM) … (cAMP, HTRF)” value in assay [1] came to 3.77 pM. In addition, the “EC50(pM), cell agonistic activity” value in the assay with human GLP-1 receptor [2] was above 100 pM.

In the case of Y[Aib]EGTFISDYSI[Aib]LDKIHQEDFVKWLLAQKG [Sequence 1 (Seq ID. 1)], the “EC50(pM) … (cAMP, HTRF)” value in assay [3] amounted to 2.38 pM. Moreover, in the assay with human GLP-1 receptor [4], the “EC50(pM), cell agonistic activity” value was above 100 pM.

For Y[Aib]EGTFISDYSIALDRLHQEDFVNWLLAQKG [Sequence 16 (Seq ID. 16)], the “EC50(pM) … (cAMP, HTRF)” value in assay [3] is 25.5 pM. The “EC50(pM), cell agonistic activity” value with human GLP-1 receptor [4] is above 100 pM.
